Experimental data published in patent US5863776A, “Method of preparing apoenzyme” (Research Development Foundation, priority 1996, dated 1999).

Experiments:
MAO B [1] = target: T1, MAO B (Homo sapiens, UniProt P27338); assay: Quantitation of expressed MAO B protein by ELISA in transfected COS-7 cells; format: cell-based; parameters: MAO B Expressed: unit not given here
T1 construct: expressed in transfected cells; host or cells: COS-7 (African green monkey), riboflavin-containing (Rib+) or riboflavin-depleted (Rib-), transient electroporation
T1 sequence (P27338 1-520): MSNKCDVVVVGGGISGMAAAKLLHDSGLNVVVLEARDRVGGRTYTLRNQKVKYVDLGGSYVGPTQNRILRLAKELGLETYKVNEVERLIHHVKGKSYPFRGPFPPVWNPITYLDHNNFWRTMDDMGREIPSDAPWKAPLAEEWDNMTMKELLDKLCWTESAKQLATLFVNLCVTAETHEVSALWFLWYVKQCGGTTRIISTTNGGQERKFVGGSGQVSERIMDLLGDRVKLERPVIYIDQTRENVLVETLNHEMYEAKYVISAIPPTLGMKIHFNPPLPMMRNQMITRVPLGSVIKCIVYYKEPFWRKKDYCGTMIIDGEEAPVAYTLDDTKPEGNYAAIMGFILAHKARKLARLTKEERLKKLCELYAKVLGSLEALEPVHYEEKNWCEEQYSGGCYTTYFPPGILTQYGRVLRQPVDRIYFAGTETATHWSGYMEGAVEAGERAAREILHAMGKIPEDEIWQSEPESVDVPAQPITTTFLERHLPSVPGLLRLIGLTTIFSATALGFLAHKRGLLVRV
Experimental: (§1) Total protein concentrations of samples containing MAO B holoenzyme, apoenzyme, or variant MAO Bs were determined by a MicroBCA kit (Pierce). All samples were then adjusted to equal protein concentrations and assayed for MAO B protein by ELISA using a modification of the method of Yeomanson and Billett (25) as described previously (18).
MAO B cDNA was expressed sequentially at different time intervals in these cells during this riboflavin depletion process (FIG. 2). Each data point in FIG. 2 represents an individual expression assay. For each assay, a sample of COS-7 cells grown in riboflavin-free medium were transfected with MAO B cDNA via electroporation. Concurrently, Rib^+ COS-7 cells were transfected with MAO B cDNA to serve as a control. Following incubation for 48 hours, the cells were homogenized and assays were performed to determine protein concentration, MAO B concentration by ELISA using polyclonal antibodies, and MAO B activity using [^14 C] benzylamine.
An equal amount of MAO B cDNA (15 μg) was expressed in both types of […]

MAO B [2] = target: T1, MAO B; assay: MAO B enzymatic activity in COS-7 cells during riboflavin depletion; format: cell-based
Experimental: Mammalian COS-7 cells were grown in Dulbecco's Modified Eagle Medium (DMEM, Gibco) supplemented with 10% fetal bovine serum (FBS, Gibco) at 37° C. with 5% CO2. Since this medium (DMEM+10% FBS) contains riboflavin, COS-7 cells grown in this medium were defined as riboflavin-containing COS-7 cells (Rib^+ COS-7 cells). MAO B holoenzyme was obtained by expressing MAO B cDNA in Rib^+ COS-7 cells. Mammalian COS-7 cells were also grown in riboflavin-free medium (riboflavin-free DMEM+10% dialyzed FBS, Gibco) at 37° C. with 5% CO2, with fresh riboflavin-free medium changed every 48-72 hours. COS-7 cells grown in riboflavin-free medium for longer than 100 days were defined as riboflavin-depleted (Rib^-) COS-7 cells. Apo-MAO B was obtained by expressing MAO B cDNA in Rib^- COS-7 cells. COS-7 cells were grown in riboflavin-free medium for greater than 5 months without any detectable change in morphology.
Wild-type or mutant MAO B cDNAs were transiently transfected into COS-7 cells by electroporation (23) as previously described (18). […]
MAO B activity was assayed radiometrically by a modification of the method of Wurtman and Axelrod (26) as described previously (18). […] The reaction product was extracted with 500 μl of toluene, and an aliquot (200 μl) of the organic phase from each sample was counted in liquid scintillation fluid (Bio-Safe) in a Beckman LB 3801 scintillation counter. […]

MAO B [3] = target: T1, MAO B; assay: FAD coupling in intact cells: MAO B enzymatic activity after electroporation of MAO B cDNA with cofactor into Rib^- COS-7 cells ([^14 C] benzylamine substrate); format: cell-based; parameters: Percent of Holo-MAO B Activity: concentration or dose not given beside the values
Experimental: Wild-type or mutant MAO B cDNAs were transiently transfected into COS-7 cells by electroporation (23) as previously described (18). Briefly, Rib^+ - or Rib^- COS-7 cells were harvested during late log phase growth and resuspended to a concentration of 3.1×10^6 cells/ml in either riboflavin-containing or riboflavin-free medium, respectively. Wild-type or mutant MAO B cDNAs ([…]) were added to 0.8 ml of cell suspension. […] Electroporation was carried out in a Bio-Rad Gene Pulser with a setting of 250 V and 500 μF. Cells were resuspended in 15 ml of riboflavin-containing or riboflavin-free medium and incubated at 37° C. with 5% CO2. Transfected COS-7 cells were harvested at 48 hours and homogenized in a lysis solution containing 20 mM Tris-HCl, 1 mM EDTA, 0.5 mM PMSF, pH 8.0. The homogenate was diluted with an equal volume of the same buffer supplemented with 300 mM NaCl to obtain a 150 mM final NaCl concentration. Triton X-100 (Pierce) was added to the lysate to give a final concentration of 0.25%, and the samples were allowed to stir for 50 min. at 4° C. to extract MAO B from the outer mitochondrial membrane. After Triton extraction, the lysate was centrifuged at 1300×g for 5 min. at 4° C. to remove insoluble cell debris.
(§2) MAO B activity was assayed radiometrically by a modification of the method of Wurtman and Axelrod (26) as described previously (18). Briefly, the reaction mixture contained 200 μl of 50 mM sodium phosphate buffer (pH 7.4), 3.6 nmole of 55 mCi/mmol [^14 C] benzylamine hydrochloride (Amersham), 10 nmoles of unlabeled benzylamine and 10 μl of cell lysate. Samples were run in triplicate, and one out of each set was denatured with […] of 6N HCl prior to the addition of substrate to serve as an internal control. All reactions were incubated for 9 minutes at 37° C., and terminated by the addition of 25 μl of 6N HCl. The reaction product was extracted with 500 μl of toluene, and an aliquot (200 μl) of the organic phase from each sample was counted in liquid scintillation fluid (Bio-Safe) in a Beckman LB 3801 scintillation counter.
FMN or riboflavin were also capable of restoring approximately 75% of MAO B holoenzyme activity. However, only 40% of MAO B holoenzyme activity was obtained by the addition of 8α-hydroxyriboflavin.
Various cofactors were added with MAO B cDNA into Rib^- COS7 cells

MAO B [4] = target: T1, MAO B; assay: Subcellular fractionation of transfected Rib^+ and Rib^- COS-7 cells: distribution of MAO B and activity; format: cell-based; details: for Fraction activity: Rib^+ COS-7
Experimental: COS-7 subcellular fractionation was carried out with a modified method of Clark and Waterman (24). Transfected Rib^+ - or Rib^- COS-7 cells were harvested, washed twice with ice-cold PBS, and pelleted by microcentrifugation at 500×g for 5 minutes. The cells were then homogenized in a Dounce homogenizer. Greater than 95% of the cells were lysed, as determined by trypan blue staining. The homogenate was diluted with an equal volume of 10 mM Tris-HCl, 1 mM EDTA, pH 8.0, to obtain a 0.25M final sucrose concentration and layered over 0.5 volume of 0.5M sucrose pad (0.5M sucrose in 10 mM Tris-HCl, 1 mM EDTA, pH 8.0). The solution was centrifuged at 5,000 rpm for 3 minutes using a swinging bucket rotor (TLS.55, Beckman TL-100) to remove cell debris and nuclei (P1 fraction). The supernatant plus the interface of the 0.5M sucrose pad was again layered over another 0.5M sucrose pad, and centrifuged as above at 17,000 rpm for 20 minutes to isolate mitochondria (P2 fraction). The resulting supernatant was centrifuged at 70,000 rpm (TL100.3, Beckman TL-100) for 30 minutes to sediment microsomes (P3 fraction). The final supernatant was the cytosol (S). After subcellular fractionation, P1, P2 and P3 were resuspended in 20 mM Tris-HCl, 1 mM EDTA, 0.5 mM PMSF, 150 mM NaCl, pH 8.0. All samples were treated with Triton X-100 to extract MAO B, and then protein concentrations, MAO B concentrations and enzymatic activities were determined.
as §1, §2
Transfected Rib^+ or Rib^- COS7 cells (1.2 × 10^7

MAO B [5] = target: T1, MAO B; assay: FAD coupling in vitro (flavinylation assay in cell lysate, 30° C.); format: biochemical; details: up to 3 hours at 30° C.
Experimental: (- - - x - - - ). […] The enzymatic activity of each sample was determined at 1 hour time intervals using [^14 C] benzylamine as substrate.
Apo-MAO B was obtained by expressing MAO B cDNA in Rib^- COS-7 cells. The cells were then harvested and homogenized as described above. One half of the lysate was stirred in the presence of 0.25% Triton X-100 at 4° C. for 50 min. to extract apo-MAO B from the outer mitochondrial membrane. The second half of the lysate was not extracted with Triton X-100 to permit MAO B to remain in the membrane. […] Assays were also carried out in the presence of an energy mixture (10 mM ATP, 32 mM PEP and 2.4 μg pyruvate kinase) and 25% glycerol in the reaction vials. Each sample was run in triplicate. After 1, 2 or 3 hours incubation at 30° C., each sample was assayed for MAO B activity as described below.
as §2

[6] = COS-7 cells grown in riboflavin-free medium for 76 days
[7] = cofactor added with MAO B cDNA into Rib^- COS-7 cells, 48 hours, mean ± SE, three experiments
[8] = Mitochondria (P2), listed as holo-MAO B

monoamine oxidase B [MAO B]
Expression (MAO B [1]; [6]): 0.90 μg MAO B/mg prot. | [MAO B] (MAO B [1]; [6]): 3.70 µg/mL | Expression (MAO B [1]; Rib^+ COS-7): 0.86 μg MAO B/mg prot. | [MAO B] (MAO B [1]; Rib^+ COS-7): 3.50 µg/mL | MAO B expression level (MAO B [1]; during riboflavin depletion, regardless of time in riboflavin-free medium): 0.95±0.04 μg/mg protein | MAO B activity, % of MAO B holoenzyme activity in Rib^+ COS-7 cells (MAO B [2]; 100 days in riboflavin-free medium): less than 5% | MAO B activity (MAO B [2]; after 116 days in riboflavin-free medium): nearly undetectable

B1: Holo-MAO B: obtained by expressing MAO B cDNA in Rib^+ COS-7 cells, which served as a positive control (protein, UniProt P27338 2-520, looked up)
Amine oxidase …: SNKCDVVVVGGGISGMAAAKLLHDSGLNVVVLEARDRVGGRTYTLRNQKVKYVDLGGSYVGPTQNRILRLAKELGLETYKVNEVERLIHHVKGKSYPFRGPFPPVWNPITYLDHNNFWRTMDDMGREIPSDAPWKAPLAEEWDNMTMKELLDKLCWTESAKQLATLFVNLCVTAETHEVSALWFLWYVKQCGGTTRIISTTNGGQERKFVGGSGQVSERIMDLLGDRVKLERPVIYIDQTRENVLVETLNHEMYEAKYVISAIPPTLGMKIHFNPPLPMMRNQMITRVPLGSVIKCIVYYKEPFWRKKDYCGTMIIDGEEAPVAYTLDDTKPEGNYAAIMGFILAHKARKLARLTKEERLKKLCELYAKVLGSLEALEPVHYEEKNWCEEQYSGGCYTTYFPPGILTQYGRVLRQPVDRIYFAGTETATHWSGYMEGAVEAGERAAREILHAMGKIPEDEIWQSEPESVDVPAQPITTTFLERHLPSVPGLLRLIGLTTIFSATALGFLAHKRGLLVRV
modifications: FAD holoenzyme
notes: obtained by expressing MAO B cDNA in Rib^+ COS-7 cells, which served as a positive control
Enzymatic Activity (MAO B [3]; [7]): 1.13 ± 0.14 μmol benzylamine/minute/mg MAO | Percent of Holo-MAO B Activity (MAO B [3]; relative to holo-MAO B expressed in Rib^+ COS-7 cells): 100% | MAO B Expressed (MAO B [1]; [7]): 1.05 ± 0.25 | Fraction activity, percentage of total (MAO B [4]; Cell debris (P1)): 4.5% | MAO B amount (MAO B [4]; Cell debris (P1)): 58 ng | MAO B, percentage of total amount (MAO B [4]; Cell debris (P1)): 6.1% | Fraction activity, percentage of total (MAO B [4]; Cytosol (S)): 3.7% | MAO B amount (MAO B [4]; Cytosol (S)): 45 ng | MAO B, percentage of total amount (MAO B [4]; Cytosol (S)): 4.7% | Fraction activity, percentage of total (MAO B [4]; Microsome (P3)): 8.6% | MAO B amount (MAO B [4]; Microsome (P3)): 96 ng | MAO B, percentage of total amount (MAO B [4]; Microsome (P3)): 10% | Fraction activity, percentage of total (MAO B [4]; Mitochondria (P2)): 83.3% | MAO B amount (MAO B [4]; Mitochondria (P2)): 760 ng | MAO B, percentage of total amount (MAO B [4]; Mitochondria (P2)): 79.3% | Fraction activity, percentage of total (MAO B [4]; [8]): Approximately 80% | MAO B, percentage of total amount (MAO B [4]; [8]): Approximately 80% | Fraction activity (MAO B [4]; Cell debris (P1)): 0.6 10^-4 mmol/minute | Fraction activity (MAO B [4]; Cytosol (S)): 0.48 10^-4 mmol/minute | Fraction activity (MAO B [4]; Microsome (P3)): 1.11 10^-4 mmol/minute | Fraction activity (MAO B [4]; Mitochondria (P2)): 10.8 10^-4 mmol/minute | stability of enzymatic activity in cell lysate (MAO B [5]): remained fully active
